No end group written: not given here.

The subject of one series is bovine βH crystallin. Description: αB crystallin protein pin array with βH crystallin. It counts as binding. The settings on record: unheated βH crystallin, 23° C.; similar maxima pre-heated 45° C. From the text:
Synthesis of Pins, binding and detection of peptides binding to ligand proteins. The αB crystallin protein pin array was used to measure the interaction between peptides and chaperone target proteins including bovine βH crystallin, human γD crystallin, equine alcohol dehydrogenase (ADH) and porcine citrate synthase (CS) as described (FIG. 12). Ghosh and Clark, Protein Sci 14: 684-95, 2005.
Refer to the methods section for detailed protocols. The absorbance corresponding to the blue coloration in each well was measured at λ=450 nm and plotted against the amino acid sequence of the corresponding peptide in that well (FIGS. 13 and 14). Wells containing peptides that have strong interactions with target proteins are dark blue and wells containing peptides that have weak or no interaction with target proteins are light blue or clear.
The purity of the target proteins used in the pin array assays, bovine βH crystallin, human γD crystallin, equine alcohol dehydrogenase (ADH) and porcine citrate synthase (CS) were determined to be >90% by SDS-PAGE. In addition, primary antibodies for each target protein were specific to that target protein and consequently contaminating proteins that may bind to the peptides will not be detected. Eighty-four sequential and overlapping peptide fragments corresponding to residues 1-175 of human αB crystallin were synthesized employing a simultaneous peptide synthesis strategy developed by Geysen, called Multipin Peptide Synthesis (Mimotopes, San Diego, Calif.). Geysen, Southeast Asian J Trop Med Public Health 21: 523-33, 1990; Chin et al., J Org Chem 62: 538-539, 1997. Peptides were immobilized on derivatized polyethylene pins arranged in a microtiter ELISA plate format. Each peptide was eight amino acids in length and consecutive peptides were offset by two amino acids. All peptides were bound covalently to the surface of the plastic pins. The first peptide was 1MDIAIHHP8 and the last peptide was 168PAVTAAPK175 for human αB crystallin.
Ghosh and Clark, Protein Sci 14: 684-95, 2005. […] The intensity of the blue color in the wells was measured at 450 nm using an ELISA plate-reader (BioTek, Winooski, Vt.). The intensity of the blue color (plotted on the X-axis) was a measure of the interaction between αB crystallin peptides (plotted on the Y-axis) and target proteins. To measure the effect of temperature on the interactions between interactive peptides and the target proteins, the target proteins were heated in a water-bath at 45° C. for fifteen minutes prior to use. Pin arrays are unable to differentiate between monomers, dimers or oligomers of target proteins that exist in solution. Instead, pin arrays are very sensitive detectors of interactions between individual peptides and the entire population (monomers, dimers or oligomers) of specific target proteins that may exist in solution under specific conditions. Each target protein was assayed two to five times. A single pin array was used for all experiments and no change in interactions was observed after more than thirty repetitions. The last three peptides of the protein pin array, 163REEKPAVT170, 165EKPAVTAA172, 167PAVTAAPK174, correspond to the epitope (163REEKPAVTAAPKK175) recognized by the primary antibody for human αB crystallin. A positive reaction is observed for these three peptides in the absence of human αB crystallin as the ligand due to direct binding of the anti-human αB crystallin antibody to these three peptides. The loss of efficiency for the pin array was measured using this assay. The loss of efficiency for the pin array was determined to be <5% by after more than 30 assays.
Protein pin arrays enabled the identification of interactive sequences necessary for the chaperone activity of human αB crystallin. Interactions between immobilized 8-mer human αB crystallin peptides and unheated and pre-heated βH crystallin, a natural protein constitute of lens cells, were measured as absorbances at λ=450 nm at 23° C. […]
Turning to KYRIPADV [Peptide 61], the “absorbance at 450 nm, interaction with βH crystallin” value is “Maximum absorbances”. The same measure, in the same setting: the result for LKVKVLGD [Peptide 45] reads “Maximum absorbances”; that for PPSFLRAP [Peptide 26], “Maximum absorbances”. For the sequence SPFYLRPP [Peptide 23], the “absorbance at 450 nm, interaction with βH crystallin” value is “Maximum absorbances”.

Another series has as its target beta amyloid (Homo sapiens, UniProt P05067). As to the kind of experiment: αB crystallin protein pin array, binding of beta amyloid. The settings on record: immobilized 8-mer peptide; absorption at 450 nm. From the text:
αB Crystallin peptides that bind the target protein beta-amyloid were identified by screening an αB crystallin protein pin array, which provides a systematic method for evaluating interactions between peptides corresponding to residues 1-175 of human αB crystallin and selected target proteins in a parallel and simultaneous manner.
Peptides were synthesized on derivatized polyethylene pins arranged in a microtiter plate format. Each peptide was 8 amino acids in length and consecutive peptides were offset by 2 amino acids. All peptides were covalently bonded to the surface plastic pins. The first immobilized peptide was 1MDIAIHHP8 and the last peptide was 168PAVTAAPK175 for the human αB crystallin.
After synthesis, the pins were pre-coated at room temperature with 2% Bovine Serum Albumin (BSA), 0.1% Tween-20 and 0.1% Sodium azide in 10 mM phosphate buffered saline pH 7.2 (PBS) for 1 hr, and washed three times for 10 mins each with 10 mM PBS. To screen for binding to the peptides, fixed concentrations of the target protein beta amyloid was dissolved in 10 mM PBS, containing 0.05% Tween-20, added to each well and incubated for 1 hr at room temperature. The pin array was washed three times for 10 mins each with 10 mM PBS, containing 0.05% Tween-20. Monoclonal or polyclonal primary antibodies for the target protein beta amyloid was diluted into PBS buffer, added to each well and incubated for 1 hr at room temperature. Subsequently, the pin array was washed three times for 10 mins each with 10 mM PBS containing 0.05% Tween-20. Anti-rabbit horse-radish peroxidase conjugate secondary antibodies was diluted into PBS buffer, added to each well and incubated for 1 hr at room temperature. The pin array was washed three times for 10 mins each with 10 mM PBS containing 0.05% Tween-20. A chromogenic substrate of horse-radish peroxidase 3,3′,5,5′-Tetramethylbenzidine (TMB) (Pharmingen, San Diego, Calif.) which is colorless was added, and the reaction was carried out for 45 min.
The reaction was stopped by adding 6N sulfuric acid, which changes the color from blue to yellow. The absorption at 450 nm was measured by an ELISA reader (BioTek, Winooski, Vt.).
The pin array was regenerated by sonication in a water bath (VWR Aquasonic, West Chester, Pa.) with 100 mM PBS, containing 1% Sodium dodecyl sulfate (SDS) and 0.1% 2-Mercaptoethanol@60° C. for 10 mins. Next, the pin array was rinsed three times in deionized water, preheated to 60° C. for 30 secs each time, and shaken in water preheated at 60° C. for 30 min. The pin array was then washed with methanol at 60° C. for 15 secs and air-dried and stored @−20° C. for future use. Each target protein was assayed 2-5 times against the human αB crystallin protein pin array peptides to verify the reproducibility of the results. Peptides numbered 5, 7, 8, 9, 13, 19, 22, 23, 24, 27, 35, 38, 45, 51, 52, 56, 57, 61, 66, 71, 72, and 79 in Table 2 reproducibly tested positive in the protein pin assay.
Consider FHSPSRLF [Peptide 9], for which the “binding of beta amyloid in the protein pin assay” value (shortened to “binding of beta amyloid”) was “positive”. Turning to HGKHEERQ [Peptide 51], the “binding of beta amyloid” value was “positive”. Consider KHEERQDE [Peptide 52], for which the “binding of beta amyloid” value was “positive”.

On to KYRIPADV [Peptide 61], for which the “binding of beta amyloid” value was “positive”.

For the sequence LKVKVLGD [Peptide 45], the “binding of beta amyloid” value is “positive”. With SPFYLRPP [Peptide 23], the “binding of beta amyloid” value is on record as “positive”.

Test system in another series: not given
Experiment: not given
The following applies: as provided by manufacturer (Mimotopes); cited from earlier work.
As to APSWFDTG [Peptide 29], the Hydrophobicity is listed as 0.56.

For the sequence DEHGFISR [Peptide 55], the Hydrophobicity is 0.16.

On to DPLTITSS [Peptide 65], for which the Hydrophobicity was 0.49. With DRFSVNLD [Peptide 37], the Hydrophobicity is 0.19. Regarding DVDPLTIT [Peptide 64], the Hydrophobicity is 0.55. With EELKVKVL [Peptide 44], the Hydrophobicity is given as 0.32. Consider EERQDEHG [Peptide 53], for which the Hydrophobicity is listed as −0.47. For EKDRFSVN [Peptide 36], the Hydrophobicity is −0.13.

Take EKPAVTAA [Peptide 83]: the Hydrophobicity is given as 0.19. EMRLEKDR [Peptide 34]: the Hydrophobicity is listed as −0.27. EVHGKHEE [Peptide 50]: the Hydrophobicity is on record as −0.18. With FDTGLSEM [Peptide 31], the Hydrophobicity is listed as 0.44.

As for FHSPSRLF [Peptide 9], the Hydrophobicity is 0.63. As to GDVIEVHG [Peptide 48], the Hydrophobicity is on record as 0.37. GEHLLESD [Peptide 15]: the Hydrophobicity is 0.18. For GPRKQVSG [Peptide 74], the Hydrophobicity is on record as −0.04.

Regarding HESPEELK [Peptide 42], the Hydrophobicity is on record as 0.25. Regarding HGKHEERQ [Peptide 51], the Hydrophobicity is reported as −0.41.

Take HLLESDLF [Peptide 16]: the Hydrophobicity was 0.7. Take HPWIRRPF [Peptide 4]: the Hydrophobicity is reported as 0.67. HRKYRIPA [Peptide 60]: the Hydrophobicity is 0.11. In the case of IHHPWIRR [Peptide 3], the Hydrophobicity is listed as 0.6. As for IPITREEK [Peptide 80], the Hydrophobicity was 0.16. With ITREEKPA [Peptide 81], the Hydrophobicity is −0.02. Turning to ITSSLSSD [Peptide 67], the Hydrophobicity was 0.35.

For KHEERQDE [Peptide 52], the Hydrophobicity is −0.6.

Regarding KYRIPADV [Peptide 61], the Hydrophobicity is on record as 0.28. For LDVKHFSP [Peptide 40], the Hydrophobicity is 0.47. “LESDLFPT (also: covalently bound to polyethylene pin) [Peptide 17]”: the Hydrophobicity is given as 0.59. LFDQFFGE [Peptide 12]: the Hydrophobicity was 0.68.

In the case of LKVKVLGD [Peptide 45], the Hydrophobicity was 0.39. Turning to LSEMRLEK [Peptide 33], the Hydrophobicity was 0.16. Turning to LSSDGVLT [Peptide 69], the Hydrophobicity was 0.5. MDIAIHHP [Peptide 1]: the Hydrophobicity is 0.67. In the case of PADVDPLT [Peptide 63], the Hydrophobicity is 0.42. In the case of PAVTAAPK [Peptide 84], the Hydrophobicity is given as 0.36. As to PERTIPIT [Peptide 78], the Hydrophobicity is given as 0.49. Take PPSFLRAP [Peptide 26]: the Hydrophobicity is 0.61. With PTSTSLSP [Peptide 20], the Hydrophobicity is 0.44.

Take QVSGPERT [Peptide 76]: the Hydrophobicity was 0.04. On to REEKPAVT [Peptide 82], for which the Hydrophobicity is −0.1. Regarding RIPADVDP [Peptide 62], the Hydrophobicity is reported as 0.28. Take RKQVSGPE [Peptide 75]: the Hydrophobicity is reported as −0.12. For the sequence RQDEHGFI [Peptide 54], the Hydrophobicity was 0.14. For RRPFFPFH [Peptide 6], the Hydrophobicity is on record as 0.62. For the sequence SDGVLTVN [Peptide 70], the Hydrophobicity is on record as 0.37. Turning to SDLFPTST [Peptide 18], the Hydrophobicity was 0.49. Regarding SGPERTIP [Peptide 77], the Hydrophobicity is 0.23.

For the sequence SPEELKVK [Peptide 43], the Hydrophobicity is 0.04. As for SPFYLRPP [Peptide 23], the Hydrophobicity is listed as 0.7. On to SPSRLFDQ [Peptide 10], for which the Hydrophobicity is listed as 0.27.

Take SRLFDQFF [Peptide 11]: the Hydrophobicity was 0.63. SSLSSDGV [Peptide 68]: the Hydrophobicity was 0.25.

Turning to STSLSPFY [Peptide 21], the Hydrophobicity was 0.66. On to SWFDTGLS [Peptide 30], for which the Hydrophobicity is 0.64. With TGLSEMRL [Peptide 32], the Hydrophobicity is on record as 0.4.

With VIEVHGKH [Peptide 49], the Hydrophobicity was 0.36. As to VKHFSPEE [Peptide 41], the Hydrophobicity is 0.19. On to VKVLGDVI [Peptide 46], for which the Hydrophobicity is given as 0.68. Regarding VLGDVIEV [Peptide 47], the Hydrophobicity is 0.72. On to VNGPRKQV [Peptide 73], for which the Hydrophobicity is 0.04. Take VNLDVKHF [Peptide 39]: the Hydrophobicity was 0.46.

The values above are taken from US20070185028A1, “Compositions and methods for treatment of protein misfolding and protein aggregation diseases” (priority 2004, published 2007).
